Results from article PMC3170320, “Minimal Antizyme Peptide Fully Functioning in the Binding and Inhibition of Ornithine Decarboxylase and Antizyme Inhibitor” (PLoS ONE, 2011).

Experiments:
ODC = conditions: cited from earlier work
From the text: (§1) There are at least four AZ isozymes with different binding affinities for ODC [31]–[32]. Isoform 1, AZ-1, is present in all tissues and is the major isoform that participates in ODC degradation. […] The C-terminal region of AZ-1 interacts with ODC to inhibit enzyme activity, and the N-terminal region of AZ-1 controls the degradation of ODC [34]–[36]. AZ-2 has a distribution similar to that of AZ-1 in all of the tissues and cells examined thus far, but its expr ...

ODC degradation = conditions: cited from earlier work
From the text: as §1

AZ peptide-inhibited ODC = experiment: Rescue of AZ-inhibited ODC enzyme activity by AZI; assay type: biochemical, human; conditions: Figure 4
Procedure: Figure 4 Relative ODC enzyme activities in the presence of AZ and AZI. ODC enzymes equilibrated with equimolar AZI were inhibited by various concentrations of AZ peptides. The concentrations of AZI and ODC were fixed at 18.9 µg/mL and 20 µg/mL, respectively (the ratio of AZI monomer versus ODC monomer was fixed at 1). Panels A–H show the inhibition curves of ODC for each AZ peptide in the absence (closed circles) and in the presence (open circles) of AZI.
For enzyme rescue experiments with AZI, the ODC enzyme was first pre-incubated with AZ at a molar ratio of 3.5 AZ monomers to 1 ODC monomer to achieve 80% enzyme inhibition. The inhibited ODC activity was recovered by increasing the AZI concentration.

AZ = conditions: ref [20], [46]–[48]; cited from earlier work
From the text: Another protein that regulates ODC by binding to AZ is called antizyme inhibitor (AZI). AZI is homologous to ODC, but lacks ODC enzymatic activity, [43]–[46]. […] AZI can bind to all isoforms of mammalian AZ [32], [42].

human AZI = experiment: AZ peptide-AZI complex size distribution by analytical ultracentrifugation; assay type: binding; conditions: Table 2
Procedure: A Beckman Optima XL-A analytical ultracentrifuge was used for sedimentation velocity experiments. Reference and sample sectors in the centerpiece were filled with buffer (400 µl) and sample protein (0.3 mg/mL, 380 µl), respectively, and then the cell was built up in an An-50 Ti rotor. Sedimentation velocity experiments were performed at 20°C with a rotor speed of 42,000 rpm. The data were traced by absorbance at 280 nm in continuous mode, with a time interval of 420 s and a step size of 0.002 cm. A total of 20–30 scans at different time points were collected and fitted to a continuous size distribution model using the program SEDFIT [54]–[55]. All size distributions were calculated at 0.1 to 20 S with a confidence level of p = 0.95 and a resolution N of 200.
In order to determine the dissociation constants (K d) of the AZ peptide-ODC and AZ peptide-AZI complexes, sedimentation velocity experiments were performed at different concentrations of AZ or AZ peptide with a constant concentration of human ODC or AZI. The K d values of the AZ peptide-ODC and AZ peptide-AZI complexes were calculated by a global fitting of all sedimentation data in the AB hetero-association model in the SEDPHAT program [56]–[57]. The partial specific volumes of the proteins, the solvent densities, and the viscosity were calculated by the SEDNTERP program. […]

B1: AZ-3: AZ isozyme 3, germ cells of testes (protein, UniProt Q9UMX2 1-235, looked up)
Ornithine decarboxylase …: MPCKRCRPSVYSLSYIKRGKTRNYLYPIWSPYAYYLYCYKYRITLREKMLPRCYKSITYKEEEDLTLQPRSCLQCSESLVGLQEGKSTEQGNHDQLKELYSAGNLTVLATDPLLHQDPVQLDFHFRLTSQTSAHWHGLLCDRRLFLDIPYQALDQGNRESLTATLEYVEEKTNVDSVFVNFQNDRNDRGALLRAFSYMGFEVVRPDHPALPPLDNVIFMVYPLERDVGHLPSEPP
- Inhibition of ODC activity, AZ-3 (ODC; ref [41]): poorly inhibits ODC activity
- ODC degradation, AZ-3 (ODC degradation; ref [41]): fails to stimulate ODC degradation

B2: Antizyme inhibitor (protein)
chain: MKGFIDDANYSVGLLDEGTNLGNVIDNYVYEHTLTGKNAFFVGDLGKIVKKHSQWQNVVAQIKPFYTVKCNSAPAVLEILAALGTGFACSSKNEMALVQELGVPPENIIYISPCKQVSQIKYAAKVGVNILTCDNEIELKKIARNHPNAKVLLHIATEDNIGGEEGNMKFGTTLKNCRHLLECAKELDVQIIGVKFHVSSACKESQVYVHALSDARCVFDMAGEIGFTMNMLDIGGGFTGTEFQLEEVNHVISPLLDIYFPEGSGVKIISEPGSYYVSSAFTLAVNIIAKKVVENDKFPSGVEKTGSDEPAFMYYMNDGVYGSFASKLSEDLNTIPEVHKKYKEDEPLFTSSLWGPSCDELDQIVESCLLPELNVGDWLIFDNMGADSFHEPSAFNDFQRPAIYYMMSFSDWYEMQDAGITSDSMMKNFFFVPSCIQLSQEDSFSAEA
modifications: left off: His6, N-terminal, state not stated
- Rescue of ODC enzyme activity by AZI (in words) (AZ peptide-inhibited ODC): can rescue AZ peptide-inhibited ODC enzyme activity
- Affinity of AZI for AZ (AZ): binds to AZ with a higher affinity than ODC
- Affinity of AZI for AZ peptides versus ODC (in words) (human AZI): can bind to AZ peptides with a higher affinity than ODC

B3: AZ-2: AZ isozyme 2, distribution similar to AZ-1, lower expression level (protein, UniProt O95190 1-189, looked up)
Ornithine decarboxylase …: MINTQDSSILPLSNCPQLQCCRHIVPGPLWCSDAPHPLSKIPGGRGGGRDPSLSALIYKDEKLTVTQDLPVNDGKPHIVHFQYEVTEVKVSSWDAVLSSQSLFVEIPDGLLADGSKEGLLALLEFAEEKMKVNYVFICFRKGREDRAPLLKTFSFLGFEIVRPGHPCVPSRPDVMFMVYPLDQNLSDED
- Inhibition of ODC activity, AZ-2 (ODC; ref [38]–[39]): can inhibit ODC enzyme activity
- ODC degradation, AZ-2 (ODC degradation; ref [38]–[39]): does not promote ODC degradation
